Experimental data reported in patent US20200140551A1 (GlaxoSmithKline, published 2020).

Columns and labels:
human FcγR I = target: T1, human FcγR I (human, UniProt P12314 16-288, limits assumed); assay: affinity to human Fcγ receptors; method not described
T1 construct: also called CD64

human FcγR IIa R131 = target: T2, human FcγR IIa R131 (human, UniProt P12318 36-218, limits assumed); assay: as above
T2 sequence (looked up): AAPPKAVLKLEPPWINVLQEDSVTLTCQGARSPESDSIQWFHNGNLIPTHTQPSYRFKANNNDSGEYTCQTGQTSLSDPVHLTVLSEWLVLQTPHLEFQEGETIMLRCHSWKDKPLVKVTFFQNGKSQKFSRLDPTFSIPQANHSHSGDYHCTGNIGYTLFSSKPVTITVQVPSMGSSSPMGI

[1] = target: T3, human ICOS on human T cells (human, UniProt Q9Y6W8 21-167); assay: flow cytometry, activated human CD8 T cells, FITC MFI, donor 1173F42
T3 construct: endogenous receptor on primary cells; also called ICOS on CD4+ and CD8+ T cells of healthy human donors
T3 sequence: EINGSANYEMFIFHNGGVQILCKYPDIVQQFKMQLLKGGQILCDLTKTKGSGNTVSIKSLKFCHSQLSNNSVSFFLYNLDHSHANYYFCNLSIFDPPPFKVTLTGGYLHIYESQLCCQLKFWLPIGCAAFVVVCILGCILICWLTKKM
Procedure: (§1) Either naive and/or activated CD3+ T cells were re-suspended in PBS with 0.1% BSA (FACS Buffer) containing Human FcR Blocking Solution at 2×10⁶ cells/mL (5 μl FcR Blocking Solution+[…] FACS Buffer per 1 mL). At a concentration of 2×10⁵ cells/well, 100 μl cells were placed into 2 mL 96 well Assay Blocks and incubated at room temperature for 15 minutes. During the incubation, a titration of the binding antibodies, anti-ICOS (H2L5 hIgG4PE) or IgG4 Isotype Control antibody was prepared as a 2× concentration. […] Following the binding incubation, cells were washed twice in 1 mL of FACS buffer, centrifuging at 400×g for 5 minutes at room temperature.
(§2) Data acquisition and compensation were performed on BD FACS instruments, LSR Fortessa X-20 or FACS Canto II using BD Diva (ver. 8.0) software. Data analysis employed Flow Jo software (ver.10.0.8r1). Results are reported as both MFI (Median Fluorescence Intensity) and Percent of cells positive for human IgG kappa light chain FITC staining out of the total live cells or appropriate parent population. EC50s were determined using Graphpad Prism 5 software (ver. 5.04) with non-linear regression of transformed data (X=(log(X)) using a variable slope with 4 parameters (log(Agonist) vs. response—Variable slope).

[2] = target: T3, human ICOS on human T cells; assay: flow cytometry, activated human CD8 T cells, FITC MFI, mean of donors
Procedure: Binding of H2L5 hIgG4PE was assessed in both naive and activated CD3+ T cells.
as §1, §2

T1 sequence (P12314 16-288 limits assumed): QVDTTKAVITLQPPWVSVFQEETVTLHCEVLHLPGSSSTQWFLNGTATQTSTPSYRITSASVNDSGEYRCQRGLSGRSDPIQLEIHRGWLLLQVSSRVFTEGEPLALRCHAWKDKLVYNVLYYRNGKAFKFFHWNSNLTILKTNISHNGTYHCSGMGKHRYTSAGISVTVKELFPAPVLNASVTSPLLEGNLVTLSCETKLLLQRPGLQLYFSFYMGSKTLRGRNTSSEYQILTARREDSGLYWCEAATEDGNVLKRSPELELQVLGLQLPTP

B1: H2L5 hIgG4PE (antibody)
heavy: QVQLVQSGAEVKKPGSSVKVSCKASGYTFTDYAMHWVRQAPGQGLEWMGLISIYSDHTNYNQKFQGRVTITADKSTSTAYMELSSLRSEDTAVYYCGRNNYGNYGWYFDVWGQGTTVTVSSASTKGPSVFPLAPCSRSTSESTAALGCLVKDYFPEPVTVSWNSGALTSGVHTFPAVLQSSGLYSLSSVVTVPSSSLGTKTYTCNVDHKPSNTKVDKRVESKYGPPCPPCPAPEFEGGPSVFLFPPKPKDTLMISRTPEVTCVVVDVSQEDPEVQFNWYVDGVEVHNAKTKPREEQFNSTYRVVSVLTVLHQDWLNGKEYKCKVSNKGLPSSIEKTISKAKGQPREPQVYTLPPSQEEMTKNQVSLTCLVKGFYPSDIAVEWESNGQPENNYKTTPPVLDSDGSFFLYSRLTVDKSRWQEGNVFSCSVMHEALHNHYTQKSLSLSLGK
light: EIVLTQSPATLSLSPGERATLSCSASSSVSYMHWYQQKPGQAPRLLIYDTSKLASGIPARFSGSGSGTDYTLTISSLEPEDFAVYYCFQGSGYPYTFGQGTKLEIKRTVAAPSVFIFPPSDEQLKSGTASVVCLLNNFYPREAKVQWKVDNALQSGNSQESVTEQDSKDSTYSLSSTLTLSKADYEKHKVYACEVTHQGLSSPVTKSFNRGEC
notes: also called 422 H2L5 hIgG4PE; H2L5 IgG4PE; copies: 2 + 2
- Kd (human FcγR I): 0.645 µM
- Kd (human FcγR IIa R131): 2.5 µM
- EC50 [1]: 0.27 µg/mL
- EC50 [2]: 0.525 µg/mL
